Test results reported in the supplement of paper PMC9170038.

Tested on: MS2 coat protein
Experiment: apparent KD of MS2 coat protein; designed switch direction (-1 OFF switch, 1 ON switch): -1; higher = weaker reporter binding
In short: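 An oligonucleotide input, 200 uM small-molecule ligand, or no input was present during titration of SNAP-549-labelled MS2 coat protein, which was doubled from 0.7 or 1.5 nM to 3 µM. Designed RNA switches had been transcribed on Illumina chips by stalled E. coli RNA polymerase. Apparent KD per design is the median over clusters of curves fitted to normalised cluster fluorescence.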

[1] = Eterna round: R95, input ligand: microRNA oligo, concentration not stated
[2] = input ligand: microRNA oligo, concentration not stated
[3] = Eterna round: R95, input ligand: FMN 200 uM
[4] = Eterna round: R95, input ligand: none

Sequence	apparent KD of MS2 coat protein [1] [nM]	apparent KD of MS2 coat protein (input ligand: FMN 200 uM) [nM]	apparent KD of MS2 coat protein [2] [nM]	apparent KD of MS2 coat protein (input ligand: none) [nM]	apparent KD of MS2 coat protein [3] [nM]	apparent KD of MS2 coat protein [4] [nM]
ACUAGAUGAGGAUAUACACAUUUUAGUGUUCCUCUAGAUUAACAUGAGGAUCACCCAUGUAGAAGGCAUCAUUU [Exclusion 2 - 10] (puzzle: Exclusion 2)	80.8					
CGUGCGUAUGUGAGGAUAUGCUGGUCCUUGGCUCGGCAGAAGGCACAUGAGGAUCACCCAUGUGGUGUCGUACU [salish99_Bmod_ex4_069] (puzzle: Brourd's mod of Exclusion 4)	50.2					
GGUGCGUAUGUGAGGAUAUGCUGGUCCUUGGAUCUGCAGAAGGCACAUGAGGAUCACCCAUGUGGUGUCGUACC [salish99_Bmod_Ex4_024] (Eterna round: R96, puzzle: Brourd's mod of Exclusion 4)		105	411	506		
UAGCCCAACUCAUCCUCAUUGAGACAUGAGGAUCACCCAUGUGAGGAUAUUGCGUCGAGAGGACACGAGAAGGCACAAUAGUUU [Eternabot solution 17] (Eterna round: R96, puzzle: Exclusion NG 3)		216	88.1	109		
UGUGUGUGAGGAUAUACAAUUGUGUGUGGAAACGCGCGCGUACAUGAGGAUCACCCAUGUAGAAGGCGCGCGCG [-30.7, -27.4 kcal A 24%, 6bis,6bis] (Eterna round: R97, puzzle: Exclusion 2)		18.4		17.9		
ACAUCACAGCUAGGAUAUAUAUGACAUGAGGAUCACCCAUGUUGUCCCAUGUUGACGAAAACCGAAUAGAAGGAGCUACAGAUG [Ex NG2 #4] (Eterna round: R96, puzzle: Exclusion NG 2)		53.2	54.9	64.2		
UGUACUAUGCGUGCUGACAUGCGUAGUGCAGCAGGUGUAACAUGAGGAUCACCCAUGUCCUCAUUUGCUCGUCUUAA [Mat - Sensor v3 - Turn-off var 2 - D14] (puzzle: Sensor v3, turn-off variant 2)	335				207	
UUCCUCGUUGUGAGGAUAUCGUCCUCUUUUUGUUACGAGAAGGCACAUGAGGAUCACCCAUGUUUCUUGAUGUU [JR_BMOE4_Sub070] (puzzle: Brourd's mod of Exclusion 4)	16.7					
AGUCCUGGAGUUAGGAUAUGGAGUAUCACUGCGCUUCAGAAGGGACUUGAGGAUCACCCAAGUAGCCGUGAGGG [salish99_bmod_ex4_r4_005] (Eterna round: R97, puzzle: Brourd's mod of Exclusion 4)		98.5		59.4		
AAAAUGUGAGGAUAUCACGGAGCCUCGCAUGACGAGACUCCUGAGAAGGCACAUGAGGAUCACCCAUGUCCUGU [EX4 A.10] (Eterna round: R97, puzzle: Exclusion 4)		382		57		
AGAUAACAUGAGGAUCACCCAUGUGAGGAUAUUUACUCAAGAGCUUCGGCUCUCAGGUGAAGAAGGCGCAAUGA [EX1 #55] (Eterna round: R97, puzzle: Exclusion 1)		44.7		45.7		
AAGAAACGAGGAUAUACAGUUGAGUGAGGGAUGUUAGUGUUACAUGAGGAUCACCCAUGUAGAAGGCGUGAGAG [JR_Exclu2_Sub091] (puzzle: Exclusion 2)	32.2				66.4	36.2
CGUCCGGCUUCCCUUCAAAACAUGAGGAUCACCCAUGUUUUUGUUUUUGCGAGCUUUUUGCUUUUUGCUCGUCUUGU [Even Better Attempt] (puzzle: Sensor v3, turn-off variant 1)	12.5				20.1	19.9
ACAAGCUUUUCGAUCCUCCACAUGAGGAUCACCCAUGUGCUCGACUUGUAAAGUACUAUCACGAAAGUGAUAGUACA [Sensor, turn off variant 1 v.1] (Eterna round: R97, puzzle: Sensor, turn-off variant 1)		455		629		
AACGAUCUAGGAUAUACAUGAGGAUCACCCAUGUAAGAGCCCAAACCAGGCUCCCUCUGUAGAAGGAGGUCAAA [Teleerre] (puzzle: Exclusion 3)	40.8					
AUUUUAUAUGAAGGAUAUACUUAACAUGAGGAUCACCCAUGUGGUGUUGUGAGUGAGUGAGUUUAGUAGAAGGUCAAUGAUUUU [JMF's solution 76] (Eterna round: R96, puzzle: Exclusion NG 2)		828	527	327		
AGCUGUGAGCGAGGAUAUCUGCUGUUUUCGGUCGGAGAAGGCGCGGACAGAACAUGAGGAUCACCCAUGUGUAUGGGCGGCCUC [Xexeenve] (Eterna round: R96, puzzle: Exclusion NG 1)		119	44.5	73.7		

Sequence	apparent KD of MS2 coat protein [1] [nM]	apparent KD of MS2 coat protein (input ligand: FMN 200 uM) [nM]	apparent KD of MS2 coat protein [2] [nM]	apparent KD of MS2 coat protein (input ligand: none) [nM]	apparent KD of MS2 coat protein [3] [nM]	apparent KD of MS2 coat protein [4] [nM]
AAGAAAGGUGACAUGGGUGACAUGAGGAUCACCCAUGUUACAAGCUUGUUGCUCGUCUUAUAAUUAACCCAUGUCAC [LRO Sensor-off var1-20 mod of Stov1-13-A1 by Brourd] (Eterna round: R97, puzzle: Sensor, turn-off variant 1)		15.6		15.6		
AGGUGUGAAGGAUAUAGCGUGGUCGACAUGAGGAUCACCCAUGUGAGAUGGUCGCCGGGUCUAGAAGGUUAGCUAA [Eternabot (L1) Solution 97] (Eterna round: R97, puzzle: Exclusion 5)		82.5		97.2		
CGUUCGCGAGGAUAUGCAUUCGAGUCCAUUACGUGUCUGGGACUUGAGGAUCACCCAAGUAGAAGGCGCCUCAC [salish99_ex2_r4_647] (Eterna round: R97, puzzle: Exclusion 2)		131		153		
ACCUCACAUGAGGAUCACCCAUGUCAGGAUAUCUAAUGUAGUCGCGUUCCCGACGCUAAGAGAAGGGACGUUGA [EX1 #36] (Eterna round: R97, puzzle: Exclusion 1)		15.8		15		
UUUUUAUAUGAAGGAUAUACUUAACAUGAGGAUCACCCAUGUGGUGUUGUGAGUGAGUGAGUUUAGUAGAAGGUCAAAGAUUUU [JMF's solution 57] (Eterna round: R96, puzzle: Exclusion NG 2)		1550	304	295		
AGUCGGCGAGGAUAUACAUGAGGAUCACCCAUGUGAGAGAUAAAAGUGAGUUAGACAAGUAGAAGGCGCUGACA [JL Lego Mod 9] (Eterna round: R96, puzzle: Exclusion 3)			46.4			
AUGAUGCAGUGAGGAUAUACAUGAGGAUCACCCAUGUUUUUUUUUUUAGAUACACUCCUUUUUUUGUAGAAGGCACUAUGAGUA [Skinny design] (Eterna round: R96, puzzle: Exclusion NG 2)		121	24	46.3		
ACAAUUAUGACAGGAUAUAGUUUUUGUUGGUCACUAGAAGGGUCUAUGCACAUGAGGAUCACCCAUGUUCUUUUUAUUUGCGAU [JR_ExcNG1_Sub017] (Eterna round: R96, puzzle: Exclusion NG 1)		29.9	27.1	39.9		
CCAAGCUUAUUCAUUAACCACAUGAGGAUCACCCAUGUAUAGGCAAUUAUGACUGGCCCAUCUGGUGCUCGUCUUAU [Sensor-V1 #30] (Eterna round: R97, puzzle: Sensor, turn-off variant 1)		17		15.9		
AUUCUCUCGGUGAGGAUAUGAGUAACGACGGCAGAUUAGAAGGUACAUGAGGAUCACCCAUGUGUGUUUGGGAU [Eternabot (L1) Solution 75] (Eterna round: R97, puzzle: Brourd's mod of Exclusion 4)		41.7		47.5		
AUUAAACAUGUAGGAUAUGCGUGGCAAAGCUAUGCAGAAGGACAUGAGGAUCACCCAUGUAAAAGCGUCUGAGUACAGAUGCAA [Mat - Exclusion NG 1 - Mod of JL - D87] (Eterna round: R96, puzzle: Exclusion NG 1)		374	61.5	62.9		
GUAGGGUCAGGAUAUACGGGCGGGAGGAUGUAGUGGAGUUGGUAGAAGGGACAUGAGGAUCACCCAUGUGAGAA [JR_Exclu4_Sub053] (puzzle: Exclusion 4)	27.3					
CUCUUGUUAGGAUAUCAAACCAGCGGCGGAACCGCUGGAAGUGAGAAGGGACAUGAGGAUCACCCAUGUAAGAA [Usrebiis] (puzzle: Exclusion 4)	39.3				161	64.8
AAAUACAAGCAAAGAUCUUACAUGAGGAUCACCCAUGUGCUCGUUUUAUAAAGUACUAUCACGAAAGUGAUAGUACA [Sensor 3, v1 - 31] (puzzle: Sensor v3, turn-off variant 1)	93.4				25	28.3
UGAAGUAGAGGAUAUACGUGGAAAUAGAUUCAUGUAUAUCUACAUGAGGAUCACCCAUGUAGAAGGCUAUAGAU [JR_Ex2_Sub073] (Eterna round: R97, puzzle: Exclusion 2)		22.8		22.4		
GGAGAAGUAGGAUAUACAUGAGGAUCACCCAUGUUUUAAUUAAUAUAUGGAAUAGUAAGUAGAAGGAUUAAGUU [A finsh] (Eterna round: R97, puzzle: Exclusion 3)		35.4		38.4		
